Experiment [1] has as its target T1, BMP-2.
T1 construct: The BMP-2 used in the heterotopic ossification model was from Thermo Fisher, and in the co-IP from Peprotech; Species is never stated, so all are treated as one molecule; also called bone morphogenetic protein 2
T1 sequence (P12643 283-396, species assumed, looked up): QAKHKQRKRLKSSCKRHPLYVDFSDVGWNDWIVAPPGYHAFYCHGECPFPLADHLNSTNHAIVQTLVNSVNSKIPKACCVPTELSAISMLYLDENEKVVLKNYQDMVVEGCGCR
The experiment is described as follows: SPR binding level normalised to molecular weight, Tfr2-ECD immobilised; reference holo-Tf. (In SPR one partner is held on a chip, and binding of the other changes the refractive index at the surface.)
Procedure: All experiments were performed three independent times. FIG. 15a: Quantification of the binding level normalized to the molecular weight. […] FIG. 15b: Binding response of different concentrations of holo-Tf and/or BMP-2. […] (n=4). FIG. 15d: SPR analyses. […] Binding response is relative to BMP-2 alone. […] FIGS. 15b and 15d: One-way ANOVA was used for statistical analysis. […] Two-way ANOVA with Bonferroni post-hoc test was used for statistical analysis. […] All data are presented as mean±SD.

Experiment [2] deals with T1, BMP-2. Put plainly: SPR steady state analysis, BMP-2 immobilised, Tfr2-ECD 10-5000 nM as analyte, 1:1 interaction assumed. As for the experimental part:
(§1) The binding analysis was performed at 37° C. at a flow rate of 30 μl/min. Each analyte was diluted in running buffer (HBS-P (pH 7.4), 150 mM NaCl, supplemented with 50 nM FeCl₃). In some experiments, 500 mM NaCl were used to reduce potential non-specific binding. […] Concentration-dependent binding of holo-Tf was performed without intermediate regeneration.
(§2) The kinetic fitting was performed by global fitting using the 1:1 Langmuir binding model (A+B=AB). Steady state analyses were conducted to determine the affinities (Kd). […] Binding and kinetic parameters were evaluated with Biacore™ T200 evaluation software 3.1.

For the next experiment, the target named is BMP-4. Put plainly: SPR steady state analysis, BMP-4 immobilised, Tfr2-ECD 10-5000 nM as analyte, 1:1 interaction assumed. As for the experimental part: as §1, §2

One molecule from patent publication US20240199755A1 (KYMAB, published 2024) can be followed below.

Sequence of BMP-4 (P12644 293-408): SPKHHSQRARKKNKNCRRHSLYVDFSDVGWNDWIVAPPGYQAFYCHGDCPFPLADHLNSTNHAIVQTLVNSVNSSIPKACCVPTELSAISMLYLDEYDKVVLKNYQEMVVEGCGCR

B1: Tfr2 extracellular domain (Tfr2-ECD), murine, aa 103-798, recombinant His-tagged (receptor, not shown: large carriers)
chain: RGSCQACGDSVLVVDEDVNPEDSGRTTLYWSDLQAMFLRFLGEGRMEDTIRLTSLRERVAGSARMATLVQDILDKLSRQKLDHVWTDTHYVGLQFPDPAHANTLHWVDADGSVQEQLPLEDPEVYCPYSATGNATGKLVYAHYGRSEDLQDLKAKGVELAGSLLLVRVGITSFAQKVAVAQDFGAQGVLIYPDPSDFSQDPHKPGLSSHQAVYGHVHLGTGDPYTPGFPSFNQTQFPPVESSGLPSIPAQPISADIADQLLRKLTGPVAPQEWKGHLSGSPYRLGPGPDLRLVVNNHRVSTPISNIFACIEGFAEPDHYVVIGAQRDAWGPGAAKSAVGTAILLELVRTFSSMVSNGFRPRRSLLFISWDGGDFGSVGATEWLEGYLSVLHLKAVVYVSLDNSVLGDGKFHAKTSPLLVSLIENILKQVDSPNHSGQTLYEQVALTHPSWDAEVIQPLPMDSSAYSFTAFAGVPAVEFSFMEDDRVYPFLHTKEDTYENLHKMLRGRLPAVVQAVAQLAGQLLIRLSHDHLLPLDFGRYGDVVLRHIGNLNEFSGDLKERGLTLQWVYSARGDYIRAAEKLRKEIYSSERNDERLMRMYNVRIMRVEFYFLSQYVSPADSPFRHIFLGQGDHTLGALVDHLRMLRADGSGAASSRLTAGLGFQESRFRRQLALLTWTLQGAANALSGDVWNIDNNF
notes: Expressed in Sf9 insect cells (pOCC211-Tfr2-ECD) and purified on HisTrap; Experiments were repeated with a commercial Tfr2-ECD from Cusabio (aa 103-798); also called His-Tfr2-ECD; His-MBP-c3-Tfr2-ECD
Broadly, the Kd is a measure of binding affinity in units of concentration. Turning to B1, in the experiment with BMP-2 [1], the “fold binding relative to holo-Tf” value came to 10 fold. Moreover, the values for the Kd in the experiment with BMP-2 [2] and in the experiment with BMP-4 were 488 nM and 409 nM, respectively.
